From paper PMC10538664 (PLOS Pathogens, 2023)

Target: prototype SARS-CoV-2 tandem RBD homotrimer (PPP) (SARS-CoV-2, UniProt P0DTC2)
Assay: cryo-EM structure
Conditions: both partners purified

B1: fragment antigen binding (Fab) of mAb CB6 (Fab, V domains shown)
VH: EVQLVESGGGLVQPGGSLRLSCAASGFTVSSNYMSWVRQAPGKGLEWVSVIYSGGSTFYADSVKGRFTISRDNSMNTLFLQMNSLRAEDTAVYYCARVLPMYGDYLDYWGQGTLVTVSS
VL: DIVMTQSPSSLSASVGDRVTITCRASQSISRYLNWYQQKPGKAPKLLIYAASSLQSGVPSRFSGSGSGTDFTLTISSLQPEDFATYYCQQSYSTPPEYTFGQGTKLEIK
stoichiometry N: 3
